± gives the standard deviation of the averaged measurements.
How the values were obtained:
Saccharomyces cerevisiae [1] = experiment: protein stability index of tFT-peptide fusion (C-terminal peptide) (PSI (0-1 scale)); higher = more stable (slower turnover); conditions: genetic background: wild type; temperature: 30 C
Saccharomyces cerevisiae [2] = experiment: as above
Method: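 MPS profiling in S. cerevisiae of the tFT-X12 degron library: putative degron peptides plus stable controls, 12 aa, fused to the C-terminus of a sfGFP-mCherry timer. Cells are FACS-sorted into 8 mCherry/sfGFP bins and deep-sequenced. PSI runs from 0 (unstable) to 1 (stable). Backgrounds are wild type, das1Δ and doa10Δ at 30 °C, and wild type, das1Δ, cdc34-1 and cdc53-1 at 37 °C; 2-3 technical replicates each.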

[3] = genetic background: cdc34-1, temperature: 37 C
[4] = genetic background: cdc53-1, temperature: 37 C
[5] = genetic background: das1 deletion, temperature: 30 C
[6] = genetic background: das1 deletion, temperature: 37 C
[7] = genetic background: doa10 deletion, temperature: 30 C
[8] = genetic background: wild type, temperature: 30 C
[9] = genetic background: wild type, temperature: 37 C
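Note: PSI is a weighted mean of sequencing reads over stability bins, variants kept only with over 10 reads, mCherry proximal and sfGFP distal, peptide attached via GGGS linker.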

Sequence | protein stability index (Saccharomyces cerevisiae [1]) | protein stability index (Saccharomyces cerevisiae [2]; [3]) | protein stability index (Saccharomyces cerevisiae [2]; [4]) | protein stability index (Saccharomyces cerevisiae [2]; [5]) | protein stability index (Saccharomyces cerevisiae [2]; [6]) | protein stability index (Saccharomyces cerevisiae [2]; [7]) | protein stability index (Saccharomyces cerevisiae [2]; [8]) | protein stability index (Saccharomyces cerevisiae [2]; [9])
FSSRVFLIVGIY | 0.427 ± 0.025 | 0.45 ± 0.015 | 0.614 ± 0.05 | 0.33 ± 0.029 | 0.538 ± 0.021 | 0.2266 ± 0.0017 | 0.27 ± 0.023 | 0.4874 ± 0.0027
LSLLCFVASVVA | 0.275 ± 0.016 | 0.168 ± 0.0083 | 0.195 ± 0.005 | 0.238 ± 0.027 | 0.292 ± 0.015 | 0.1585 ± 0.00028 | 0.194 ± 0.021 | 0.224 ± 0.013
LPSPPSSPPLRP | 0.508 ± 0.019 | 0.6542 ± 0.0027 | 0.57161 ± 0.00026 | 0.597 ± 0.0064 | 0.732 ± 0.045 | 0.5877 ± 0.0035 | 0.599 ± 0.017 | 0.701 ± 0.039
FYGVRFLVCVSA | 0.1575 ± 0.0005 | 0.0202 ± 0.0026 | 0.0332 ± 0.0048 | 0.111 ± 0.037 | 0.117 ± 0.015 | 0.0738 ± 0.018 | 0.105 ± 0.03 | 0.096 ± 0.0045
CRLLVFGLCVGA | 0.342 ± 0.014 | 0.292 ± 0.012 | 0.332 ± 0.0083 | 0.228 ± 0.046 | 0.419 ± 0.0084 | 0.189 ± 0.0062 | 0.237 ± 0.022 | 0.39 ± 0.0056
FFCYFFEFFICG | 0.382 ± 0.017 | 0.326 ± 0.054 | 0.419 ± 0.013 | 0.339 ± 0.028 | 0.468 ± 0.0082 | 0.337 ± 0.015 | 0.323 ± 0.011 | 0.441 ± 0.025
SFGLICFLILCG | 0.2964 ± 0.00086 | 0.218 ± 0.0065 | 0.218 ± 0.052 | 0.206 ± 0.03 | 0.372 ± 0.038 | 0.173 ± 0.023 | 0.205 ± 0.014 | 0.301 ± 0.0073
SCFCFRVLLCSF | 0.383 ± 0.0064 | 0.333 ± 0.041 | 0.348 ± 0.0054 | 0.336 ± 0.023 | 0.402 ± 0.019 | 0.325 ± 0.021 | 0.297 ± 0.019 | 0.364 ± 0.0086
PLFPLLGLLFFF | 0.461 ± 0.046 | 0.595 ± 0.029 | 0.6147 ± 0.0041 | 0.513 ± 0.032 | 0.592 ± 0.02 | 0.472 ± 0.032 | 0.496 ± 0.039 | 0.558 ± 0.018
SHPAPPSPPPSP | 0.413 ± 0.0094 | 0.618 ± 0.078 | 0.676 ± 0.0076 | 0.384 ± 0.025 | 0.537 ± 0.014 | 0.363 ± 0.0086 | 0.391 ± 0.025 | 0.534 ± 0.0059
PDRSTILHISGF | 0.699 ± 0.019 | 0.721 ± 0.021 | 0.7606 ± 0.001 | 0.642 ± 0.034 | 0.744 ± 0.022 | 0.644 ± 0.037 | 0.633 ± 0.0087 | 0.728 ± 0.023
VFSVTVVFVSVL | 0.298 ± 0.046 | 0.158 ± 0.0021 | 0.271 ± 0.062 | 0.192 ± 0.035 | 0.383 ± 0.014 | 0.168 ± 0.011 | 0.191 ± 0.024 | 0.324 ± 0.012
TVETYNRARKAS | 0.373 ± 0.075 | 0.663 ± 0.0089 | 0.674 ± 0.014 | 0.631 ± 0.038 | 0.7 ± 0.015 | 0.218 ± 0.013 | 0.232 ± 0.039 | 0.412 ± 0.005
SSVFLGWLIVCY | 0.245 ± 0.0037 | 0.0861 ± 0.0015 | 0.115 ± 0.033 | 0.173 ± 0.043 | 0.2851 ± 0.0027 | 0.154 ± 0.0099 | 0.168 ± 0.021 | 0.255 ± 0.027
LSFLCFSTVLHC | 0.503 ± 0.073 | 0.557 ± 0.0096 | 0.606 ± 0.019 | 0.511 ± 0.017 | 0.58 ± 0.019 | 0.46 ± 0.022 | 0.462 ± 0.03 | 0.54302 ± 0.00015
IVCYFFAFSFMW | 0.362 ± 0.0046 | 0.288 ± 0.014 | 0.399 ± 0.058 | 0.293 ± 0.028 | 0.462 ± 0.0081 | 0.2859 ± 0.0019 | 0.288 ± 0.025 | 0.425 ± 0.024
FCCSVFCFLCLY | 0.504 ± 0.049 | 0.562 ± 0.044 | 0.548 ± 0.02 | 0.505 ± 0.027 | 0.572 ± 0.0057 | 0.5442 ± 0.001 | 0.492 ± 0.0071 | 0.518 ± 0.019
SSGAVGLVIVVC | 0.276 ± 0.014 | 0.113 ± 0.028 | 0.185 ± 0.01 | 0.214 ± 0.049 | 0.309 ± 0.0093 | 0.155 ± 0.018 | 0.205 ± 0.023 | 0.247 ± 0.0078
CSSLIMIITCVN | 0.199 ± 0.046 | 0.2613 ± 0.00064 | 0.289 ± 0.013 | 0.244 ± 0.031 | 0.4 ± 0.017 | 0.0883 ± 0.023 | 0.115 ± 0.0091 | 0.122 ± 0.027
SVFFRPVLICCA | 0.101 ± 0.037 | 0.0234 ± 0.00059 | 0.0313 ± 0.0091 | 0.0774 ± 0.01 | 0.0628 ± 0.0047 | 0.0558 ± 0.0082 | 0.0558 ± 0.013 | 0.048 ± 0.0039

Sequence | protein stability index (Saccharomyces cerevisiae [1]) | protein stability index (Saccharomyces cerevisiae [2]; [3]) | protein stability index (Saccharomyces cerevisiae [2]; [4]) | protein stability index (Saccharomyces cerevisiae [2]; [5]) | protein stability index (Saccharomyces cerevisiae [2]; [6]) | protein stability index (Saccharomyces cerevisiae [2]; [7]) | protein stability index (Saccharomyces cerevisiae [2]; [8]) | protein stability index (Saccharomyces cerevisiae [2]; [9])
FERKVHSRWLFF | 0.23 ± 0.038 | 0.56888 ± 0.00051 | 0.745 ± 0.022 | 0.658 ± 0.011 | 0.7407 ± 0.00086 | 0.0981 ± 0.019 | 0.15 ± 0.016 | 0.437 ± 0.018
TCGAKWIFSHIC | 0.267 ± 0.019 | 0.6 ± 0.054 | 0.754 ± 0.011 | 0.646 ± 0.022 | 0.772 ± 0.016 | 0.14 ± 0.0052 | 0.152 ± 0.0092 | 0.275 ± 0.035
FVVVGVLFLCVG | 0.367 ± 0.025 | 0.256 ± 0.0023 | 0.4122 ± 0.00071 | 0.278 ± 0.023 | 0.479 ± 0.011 | 0.258 ± 0.0065 | 0.277 ± 0.03 | 0.442 ± 0.007
SFIVGYRWNNRN | 0.443 ± 0.047 | 0.672 ± 0.018 | 0.738 ± 0.035 | 0.647 ± 0.015 | 0.7542 ± 0.0063 | 0.337 ± 0.033 | 0.378 ± 0.0046 | 0.5776 ± 0.0018
LFFCYRVFLLVF | 0.185 ± 0.019 | 0.132 ± 0.01 | 0.152 ± 0.0027 | 0.199 ± 0.023 | 0.243 ± 0.006 | 0.121 ± 0.016 | 0.106 ± 0.026 | 0.1719 ± 0.00093
LLPSPLLLYSLS | 0.451 ± 0.028 | 0.556 ± 0.03 | 0.578 ± 0.019 | 0.434 ± 0.022 | 0.6022 ± 0.0024 | 0.3814 ± 0.0018 | 0.412 ± 0.017 | 0.562 ± 0.015
RFLVVVRFYWRC | 0.439 ± 0.044 | 0.288 ± 0.087 | 0.424 ± 0.013 | 0.245 ± 0.028 | 0.441 ± 0.0079 | 0.168 ± 0.015 | 0.214 ± 0.035 | 0.36 ± 0.0067
VILCSCSFVLRP | 0.401 ± 0.0085 | 0.523 ± 0.011 | 0.583 ± 0.023 | 0.373 ± 0.021 | 0.57243 ± 0.00022 | 0.362 ± 0.026 | 0.376 ± 0.02 | 0.5617 ± 0.0053
RDGAHFLLILVC | 0.203 ± 0.059 | 0.0425 ± 0.0098 | 0.0913 ± 0.022 | 0.176 ± 0.033 | 0.2536 ± 0.0015 | 0.088 ± 0.025 | 0.125 ± 0.025 | 0.154 ± 0.019
WAIMGLIIFCLF | 0.329 ± 0.022 | 0.309 ± 0.0083 | 0.363 ± 0.031 | 0.3 ± 0.035 | 0.438 ± 0.015 | 0.222 ± 0.0086 | 0.244 ± 0.022 | 0.353 ± 0.012
PPRRCFPLLLFF | 0.235 ± 0.036 | 0.44 ± 0.094 | 0.4471 ± 0.0019 | 0.445 ± 0.022 | 0.546 ± 0.01 | 0.208 ± 0.0085 | 0.209 ± 0.014 | 0.331 ± 0.012
DFPGDIILRLIA | 0.207 ± 0.11 | 0.576 ± 0.041 | 0.748 ± 0.044 | 0.635 ± 0.014 | 0.728 ± 0.025 | 0.139 ± 0.0097 | 0.155 ± 0.0082 | 0.214 ± 0.069
PISLYFVWFFFF | 0.195 ± 0.074 | 0.242 ± 0.0081 | 0.363 ± 0.033 | 0.251 ± 0.024 | 0.369 ± 0.04 | 0.15 ± 0.011 | 0.147 ± 0.0072 | 0.269 ± 0.015
ACACFWVVWVGW | 0.378 ± 0.03 | 0.262 ± 0.027 | 0.374 ± 0.021 | 0.248 ± 0.024 | 0.4309 ± 0.0018 | 0.217 ± 0.021 | 0.238 ± 0.035 | 0.402 ± 0.0083
LRMSLLVFLLFA | 0.314 ± 0.054 | 0.312 ± 0.03 | 0.407 ± 0.033 | 0.261 ± 0.033 | 0.4419 ± 0.0016 | 0.249 ± 0.021 | 0.231 ± 0.025 | 0.399 ± 0.0072
LLLLRCLWISHA | 0.244 ± 0.015 | 0.324 ± 0.053 | 0.441 ± 0.029 | 0.319 ± 0.039 | 0.5121 ± 0.0012 | 0.125 ± 0.019 | 0.145 ± 0.026 | 0.258 ± 0.0082
SILFSYFCFFLL | 0.356 ± 0.01 | 0.523 ± 0.027 | 0.545 ± 0.019 | 0.441 ± 0.031 | 0.586 ± 0.014 | 0.274 ± 0.0065 | 0.273 ± 0.028 | 0.443 ± 0.0077
FFIVGACAYVFA | 0.319 ± 0.033 | 0.223 ± 0.036 | 0.30494 ± 0.00019 | 0.228 ± 0.031 | 0.385 ± 0.0094 | 0.204 ± 0.013 | 0.231 ± 0.029 | 0.37 ± 0.015
RRLYERNKNNKQ | 0.435 ± 0.072 | 0.696 ± 0.024 | 0.741 ± 0.049 | 0.611 ± 0.036 | 0.729 ± 0.061 | 0.311 ± 0.019 | 0.387 ± 0.067 | 0.649 ± 0.013

Source: the supplement of paper PMC10724198
